{
  "source": "patent US20230149507A1",
  "about": "“TREATMENT OF ALT CANCERS” (INSTITUTO DE MEDICINA MOLECULAR JOÃO LOBO ANTUNES, priority 2019, published 2023)",
  "key": {"[1]": {"tested_on": "HeLa cells", "experiment": "FACS cell cycle analysis of FANCM-depleted HeLa cells with added agents", "type": "cell-based, human", "conditions": "HeLa cells depleted for FANCM; 20 μM BIBR 1532 for 7 days", "protocol": "When indicated, cells were incubated with 1 μM camptothecin (Sigma-Aldrich) for 3 hours, 0.2 mM hydroxyurea (Sigma-Aldrich) for 16 h, 20 μM BIBR 1532 (Merck Millipore) for 7 days, and 10 μM RO-3306 (Selleckchem) for 18 h. […] For fluorescence-activated cell sorting, cells were trypsinized and pelleted by centrifugation at 500 g at 4° C. for 5 min. Cell pellets were either left untreated for viability assays or fixed in 70% ethanol at −20° C. for 30 min and treated with 25 μg/ml RNaseA (Sigma-Aldrich) in 1×PBS at 37° C. for 20 min. Cells were then washed in 1×PBS and stained with 20 μg/ml propidium iodide (Sigma-Aldrich) in 1×PBS at 4° C. for 10 min. Flow cytometry was performed on a BD FACSCalibur or a BD Accuri C6 (BD Biosciences). Data were analyzed using FlowJo software."}, "[2]": {"target": "T1, FANCM-BTR complex (Homo sapiens, UniProt Q96E14+Q9H9A7)", "T1 construct": "expressed in transfected cells; host or cells: HEK-293", "T1 sequence (Q9H9A7 1-625)": "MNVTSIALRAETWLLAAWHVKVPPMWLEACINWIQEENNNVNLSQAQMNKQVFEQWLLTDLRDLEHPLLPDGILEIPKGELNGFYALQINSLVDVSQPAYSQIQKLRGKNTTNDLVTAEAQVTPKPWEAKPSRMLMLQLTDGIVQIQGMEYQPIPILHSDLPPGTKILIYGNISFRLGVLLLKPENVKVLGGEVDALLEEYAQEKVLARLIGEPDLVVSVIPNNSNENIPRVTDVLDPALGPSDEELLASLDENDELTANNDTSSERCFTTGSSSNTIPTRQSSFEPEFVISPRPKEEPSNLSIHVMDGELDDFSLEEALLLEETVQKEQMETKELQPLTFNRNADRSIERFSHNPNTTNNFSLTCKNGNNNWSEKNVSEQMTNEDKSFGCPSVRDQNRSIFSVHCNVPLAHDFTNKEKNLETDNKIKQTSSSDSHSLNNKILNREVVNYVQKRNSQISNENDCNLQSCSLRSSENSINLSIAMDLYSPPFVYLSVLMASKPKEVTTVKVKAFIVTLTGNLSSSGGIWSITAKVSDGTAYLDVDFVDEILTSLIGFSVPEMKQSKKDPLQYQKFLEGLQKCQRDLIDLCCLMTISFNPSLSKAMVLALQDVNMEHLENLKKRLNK", "T1 sequence (Q96E14 2-147 limits assumed)": "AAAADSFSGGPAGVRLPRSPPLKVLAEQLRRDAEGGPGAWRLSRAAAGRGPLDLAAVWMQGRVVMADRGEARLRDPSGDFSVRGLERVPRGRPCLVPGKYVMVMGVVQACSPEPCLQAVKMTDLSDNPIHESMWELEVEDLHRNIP", "T1 sequence (Q13472 1-1001 partner)": "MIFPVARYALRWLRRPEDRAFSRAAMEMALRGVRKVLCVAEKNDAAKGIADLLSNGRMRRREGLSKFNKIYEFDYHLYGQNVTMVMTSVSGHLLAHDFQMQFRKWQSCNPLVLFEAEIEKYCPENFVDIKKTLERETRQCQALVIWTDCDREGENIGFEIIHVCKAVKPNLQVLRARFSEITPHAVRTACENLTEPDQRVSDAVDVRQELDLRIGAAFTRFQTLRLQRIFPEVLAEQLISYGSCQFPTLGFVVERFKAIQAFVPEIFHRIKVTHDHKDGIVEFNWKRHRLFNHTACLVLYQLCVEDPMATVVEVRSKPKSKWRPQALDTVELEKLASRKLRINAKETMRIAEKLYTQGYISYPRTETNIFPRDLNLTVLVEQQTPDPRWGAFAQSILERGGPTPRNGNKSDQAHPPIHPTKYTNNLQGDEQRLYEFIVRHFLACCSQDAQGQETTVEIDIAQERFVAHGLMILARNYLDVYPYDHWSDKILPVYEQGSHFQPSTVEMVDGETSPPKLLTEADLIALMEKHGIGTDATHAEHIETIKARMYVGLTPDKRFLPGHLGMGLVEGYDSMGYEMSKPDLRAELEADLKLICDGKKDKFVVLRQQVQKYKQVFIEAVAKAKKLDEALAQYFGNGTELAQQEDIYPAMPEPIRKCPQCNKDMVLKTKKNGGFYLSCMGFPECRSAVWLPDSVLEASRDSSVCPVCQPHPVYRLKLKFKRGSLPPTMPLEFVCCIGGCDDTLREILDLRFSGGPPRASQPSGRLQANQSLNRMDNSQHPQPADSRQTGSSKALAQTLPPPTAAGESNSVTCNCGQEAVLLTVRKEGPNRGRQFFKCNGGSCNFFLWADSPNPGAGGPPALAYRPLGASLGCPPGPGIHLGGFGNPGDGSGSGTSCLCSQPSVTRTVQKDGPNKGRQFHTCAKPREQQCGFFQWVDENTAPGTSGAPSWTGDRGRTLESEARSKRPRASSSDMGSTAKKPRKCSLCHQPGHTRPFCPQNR", "experiment": "Flag-FANCM immunoprecipitation of the FANCM-BTR complex with MM2 peptides added to cellular lysates", "type": "binding", "conditions": "peptide 1-50 μM, lysates of HEK-293 cells expressing Flag-FANCM", "description": "FIG. 10. Characterization of the MM2-ER fusion protein. (a) Schematic showing competitive inhibition of FANCM-BTR complex formation by the MM2 peptide. […] (c) Representative mitotic spreads showing sister-chromatid exchanges (SCEs) in U-2 OS cells expressing MM2-ER or FF>AA-ER mutant fusion proteins in the presence or absence of 40HT (left panel). Quantitation of SCEs (right panel). (d) Representative mitotic spreads showing sister-chromatid exchanges (SCEs) in HeLa cells expressing MM2-ER or FF>AA-ER mutant fusion proteins in the presence or absence of 40HT (left panel). Quantitation of SCEs (right panel). SCEs are indicated by black arrows. For c and d, scatterplot bars represent the mean±SEM number of SCEs from 15-30 mitotic spreads, *p<0.05, **p<0.005, Mann-Whitney test. NB: The frequency of double labelled mitoses in MM2-ER+4OHT samples was approximately 10% of that in the controls, likely due to significant cell cycle delays introduced by activation of the MM2-inhibitor. As thus, SCE levels are likely underestimated in this experiment.\nFor co-IP experiments involved the ER-inducible system, cells were lysed in IP buffer (20 mM Tris-HCl pH 7.5, 100 mM NaCl, 10% (v/v) glycerol, 0.5 mM EDTA, 1 mM DTT) supplemented with 1× mammalian protease inhibitor cocktail (Sigma Aldrich) and 50 U/ml Benzonase (Novagen) for 2 h at 4° C., with or without MM2 peptide variants (Mimotopes). Following lysis, NaCl concentration was increased to 250 mM, then the lysate cleared at 16,000×g for 15 mins. Supernatant was then mixed with 1 μg of α-FANCM (Abcam) or α-ER (Santa Cruz Biotechnology) and 20 μl protein G sepharose (GE Healthcare), or using α-Flag M2 agarose (Sigma Aldrich). Following 3 h of mixing at 4° C., beads were washed 4× with IP buffer, and 1× with 50 mM NH4(CO3)2, 0.5 mM EDTA, then eluted with 500 mM NH4OH (pH 11.0), 0.5 mM EDTA. Samples were then lyophilized and resuspended in 1×LDS loading buffer (Life Technologies) prior to immunoblotting."}, "[3]": {"tested_on": "U-2 OS ALT cells", "experiment": "Metaphase-TIFs after FANCM knockdown with siRNA", "type": "cell-based, human", "conditions": "compared to the scrambled control; siRNA 30 nM, 72 h", "description": "(a) Representative images of telomere (green) and γ-H2AX (red) colocalizations on metaphase spreads (meta-TIFs) in U-2 OS cells with or without FANCM depletion (left panel). Meta-TIFs are indicated by white arrows. Scale bars are 5 μm. Quantitation of TIFs (right panel). Scatterplot bars represent the mean±SEM. Out of 3 experiments, n≥81 metaphases scored per treatment, **p<0.005, Mann-Whitney test. (b) Native and denatured TRF analysis of U-2 OS cells with or without FANCM depletion. Colored arrows correspond to telomeric DNA species depicted in panel c. (c) Schematic of migration patterns for indicated telomeric species separated by two-dimensional gel electrophoresis (top panel). Two-dimensional TRF analysis of U-2 OS cells with or without FANCM depletion, hybridized under native and denatured conditions to detect the telomeric C-strand and G-strand (left and right panels). Colored arrows correspond to telomeric DNA species depicted in schematic. (d) Representative dot blot and quantitation of C-circle assays of U-2 OS cells with or without FANCM depletion. C-circle levels were normalized to the mean of scrambled control. Error bars represent the mean±SEM from n=3 experiments, *p<0.05, **p<0.005, Student's t-test. […] Out of 3 experiments, n≥150 cells scored per treatment, *p<0.05, **p<0.005, Mann-Whitney test. […]"}},
  "data": [
    {"compound": "C/C(=C\\C(=O)Nc1ccccc1C(=O)O)c1ccc2ccccc2c1", "note": "[BIBR 1532]", "values": [
      {"measurement": "accumulation in G2/M", "setting": "[1]", "result": "did not accumulated in G2/M"}
    ]},
    {"compound": "MM2 peptide containing the FF>AA mutant: MM2 peptide containing the FF>AA mutant (SEQ ID NO: 30) that does not bind to BTR (EDIFDCSRDLFSVTADLGACSPDSDDEILEHTSD; mutated FANCM peptide) [reference compound]", "values": [
      {"measurement": "FANCM-BTR complex formation (TOP3A binding)", "setting": "[2]", "result": "unable to inhibit complex formation"}
    ]},
    {"compound": "MM2 peptide: chemically synthesized peptide (SEQ ID NO: 29) corresponding to the highly conserved 28 amino acids of the MM2 domain (EDIFDCSRDLFSVTFDLGFCSPDSDDEILEHTSD; wildtype FANCM MM2 peptide)", "values": [
      {"measurement": "FANCM-BTR complex formation (TOP3A binding)", "setting": "[2]", "result": "dose-dependent inhibition of FANCM-BTR complex formation"},
      {"measurement": "FANCM-BTR complex formation (TOP3A binding)", "setting": "[2]; listed as MM2-WT", "result": "diminishes with increasing concentrations"}
    ]},
    {"compound": "siFANCM1: Silencer Select siRNA FANCM1 (s33619) (SEQ ID NO: 12) (GCUCGUUCUUUGAUUCAGA; listed as RNA, chemistry not given here)", "values": [
      {"measurement": "metaphase-TIFs (meta-TIFs)", "setting": "[3]", "result": "significant increase in metaphase-TIFs"}
    ]}
  ]
}
